Test results reported in patent US20240417462A1 (SHANGHAI CELGEN BIO PHARMACEUTICAL, published 2024).
Values joined by “and” are separate entries in the source; they are usually repeats but may differ in a detail not shown here. Equal values may be shown once. Read-outs that look alike come from different tables or passages of the source.

T1: mouse TIGIT antigen (mouse, UniProt P86176 29-148, limits assumed)
T1 construct: construct not described; also called murine TIGIT
T1 sequence (looked up): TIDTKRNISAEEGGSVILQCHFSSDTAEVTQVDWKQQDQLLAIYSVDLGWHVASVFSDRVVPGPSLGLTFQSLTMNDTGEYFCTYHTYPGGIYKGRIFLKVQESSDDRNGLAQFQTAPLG

T2: recombinant human TIGIT (Human TIGIT His, Sino Biological, 10917-H08H) (human, UniProt Q495A1 22-138)
T2 construct: range 1-138; bought; also called hTIGIT
T2 sequence (looked up): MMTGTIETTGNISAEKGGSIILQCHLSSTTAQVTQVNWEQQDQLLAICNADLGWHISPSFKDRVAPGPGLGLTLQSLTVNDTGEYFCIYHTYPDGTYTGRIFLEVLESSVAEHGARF

T3: full-length human TIGIT expressed on CHO-K cell membrane (CHO-K-TIGIT) (human, UniProt Q495A1 22-244)
T3 construct: whole, on cells; also called CHO-TIGIT; membrane TIGIT
T3 sequence (looked up): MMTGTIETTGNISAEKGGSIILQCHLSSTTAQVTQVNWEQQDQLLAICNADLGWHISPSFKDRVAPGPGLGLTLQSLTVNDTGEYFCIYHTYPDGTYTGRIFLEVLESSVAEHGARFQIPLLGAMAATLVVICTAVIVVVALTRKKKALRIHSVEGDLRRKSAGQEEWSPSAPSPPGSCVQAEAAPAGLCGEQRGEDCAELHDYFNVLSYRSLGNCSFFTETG


Key:
mouse TIGIT antigen = target: T1, mouse TIGIT antigen; assay: ELISA, coated mouse TIGIT
Protocol: (§1) The cynomolgus monkey or mouse TIGIT antigen of was coated with the same method as above, the anti-human TIGIT mouse monoclonal antibody was diluted in gradient, and then the anti-mouse Fab secondary antibody was added (Jackson Immuno Research, 515-035-072) for TMB development. ELISA was used to detect the binding of 8 mouse monoclonal antibodies to recombinant cynomolgus monkey TIGIT.

[1] = target: T2, recombinant human TIGIT (Human TIGIT …); assay: competition ELISA, coated TIGIT-His, CD155-Fc as competitor
Protocol: In order to evaluate the competition between the anti-human TIGIT mouse monoclonal antibody and CD155 (Human CD155 (Fc Tag): Sino Biological, 10109-H02H) for binding to recombinant human TIGIT (Human TIGIT(His), Sino Biological, 10917-H08H), ELISA detection was performed, and the specific steps were as follows:
Primary antibody incubation: the plate was washed twice with PBS (250 μl/well), and patched dry. 6 μg/ml of CD155 was respectively diluted in a binding solution and added into a 96-well dilution plate at 60 μl/well. Then the screened hybridoma antibody was diluted with the binding solution, (the highest concentration was 30 μg/ml), and diluted to 3 times of concentration, and added into the corresponding dilution plate above at 60 μl/well. After mixing well, the sample was added to the coated 96-well ELISA plate at 100 μl/well. The plate was sealed with a sealing film and placed at 37° C. for 1.5 hours.
Secondary antibody incubation: the blocking solution was discarded, the plate was washed with 250 μl PBST for 3 times, and patched dry.

[2] = target: T2, recombinant human TIGIT (Human TIGIT …); assay: ELISA, coated human TIGIT-His
[3] = target: T4, recombinant cynomolgus monkey TIGIT (cynomolgus monkey, UniProt A0A7N9I9V4 89-209); assay: ELISA, recombinant cynomolgus TIGIT coated, anti-mouse Fab secondary antibody, TMB, OD450/655nm
T4 construct: construct not described; also called cynomolgus TIGIT
Protocol: as §1

[4] = target: T2, recombinant human TIGIT (Human TIGIT …); assay: BLI, antibody captured on anti-human Fc probe, TIGIT-His in solution
[5] = target: T2, recombinant human TIGIT (Human TIGIT …); assay: ELISA, recombinant human TIGIT (His) coated, anti-human-Fc-AP, OD405/490
Protocol: (§2) Antigen hTIGIT (Human TIGIT (His), Sino Biological, 10917-H08H) was diluted into 1 μg/mL with a NaHCO₃ solution of pH 9.6, 50 μl per well was added to a 96-well ELISA plate, and placed overnight in refrigerator at 4° C.
(§3) In order to determine whether the humanized TIGIT monoclonal antibody of the present disclosure could bind to the recombinant human TIGIT protein, in vitro testing was performed. Murine antibodies and Tiragolumab (Tira) were used as positive controls. The experimental method was the same as in Example 3.1.

[6] = target: T3, full-length human TIGIT expressed on …; assay: flow cytometry, CHO-TIGIT cells
[7] = target: T2, recombinant human TIGIT (Human TIGIT …); assay: BLI, antibody captured on anti-human Fc probe, TIGIT-His in solution; remark: listed apart in the source
[8] = target: T2, recombinant human TIGIT (Human TIGIT …); assay: competition ELISA, human TIGIT (His) coated, antibody titrated against fixed CD155, bound CD155 detected, OD450/655
[9] = target: T2, recombinant human TIGIT (Human TIGIT …); assay: competition ELISA on recombinant human TIGIT, CD155 as competitor
[10] = target: T2, recombinant human TIGIT (Human TIGIT …); assay: ELISA, recombinant human TIGIT (His) coated, anti-human-Fc-AP, OD405/490; remark: listed apart in the source
Protocol: as §2, §3

T4 sequence (A0A7N9I9V4 entry or part of it): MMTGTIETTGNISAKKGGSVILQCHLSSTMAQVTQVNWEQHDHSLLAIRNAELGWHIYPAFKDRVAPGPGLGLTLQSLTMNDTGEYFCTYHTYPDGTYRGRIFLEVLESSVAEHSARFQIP

Binder | binding result (mouse TIGIT antigen) | IC50 [1] [nM] | EC50 [2] [nM] | binding result [3] | Kd [4] [nM] | koff [4] [s⁻¹] | kon [4] [M⁻¹ s⁻¹] | EC50 [5] [µg/mL] | EC50 [6] [nM] | Kd [7] [nM] | koff [7] [s⁻¹] | kon [7] [M⁻¹ s⁻¹] | IC50 [8] | IC50 [9] [nM] | EC50 [10]
anti-human TIGIT mouse monoclonal antibody 7103-08 (antibody, V domains shown, also called 49F8-1-2) VH: EVQLQESGPELVKPGASVKISCKASGYSFTGYYMLWVKQSHVKSLEWIGRINPYNGATTYNQNFKDKASLTVNKSSSTAYMELHSLTSEDSAVYYCARWFGDFDFWGQGTTLTVSS VL: DIQMTQSPSSLSASLGERVSLTCRASQEISGYLSWLQQKPDGTIKRLIYATSTLDSGVPKRFSGSRSGSDYSLTISSLESEDFADYYCLQYASYPFTFGSGTKLEIK | no binding | 0.0857 | 0.0372 | no binding | – | – | – | – | – | – | – | – | – | – | –
humanized anti-human TIGIT monoclonal antibody P03487 (antibody, V domains shown) VH: QVQLVQSGAEVKKPGASVKVSCKASGYTFISYNIYWVRQAPGQGLEWIGGVNPSNGNTNFNENFKSRVTLTVDKSISTAYMELSRLRSDDTAVYYCTRGNYYGYEFAYWGQGTTVTVSS VL: DIQMTQSPSSMSASVGDRVTITCKASQHVSTAVAWYQQKPGKAPKLLIYSPSYRYTGVPSRFSGSGSGTDFTFTISSVQPEDIATYYCQQHYSTPWTFGGGTKLEIK | – | – | 0.532 | – | 1.43 | 0.000804 | 562000 | 0.0794 | – | – | – | – | – | – | –
humanized anti-human TIGIT monoclonal antibody P03492 (antibody, V domains shown) VH: QVQLVQSGAEVKKPGASVKVSCKASGYTFISYNIYWVRQAPGQGLEWIGGVNPSNGNTNFNENFKGRVTLTVDTSISTAYMELSRLRSDDTAVYYCTRGNYYGYEFAYWGQGTTVTVSS VL: DIQMTQSPSSLSASVGDRVTITCKASQHVSTAVAWYQQKPGKAPKLLIYSPSYRYTGVPSRFSGSGSGTDFTFTISSLQPEDIATYYCQQHYSTPWTFGGGTKLEIK | – | – | 0.463 | – | 1.49 | 0.000781 | 525000 | 0.0692 | 0.437 | – | – | – | – | – | –
humanized anti-human TIGIT monoclonal antibody P03486 (antibody, V domains shown) VH: QVQLVQSGAEVKKPGASVKLSCKASGYTFISYNIYWVRQAPGQGLEWIGGVNPSNGNTNFNENFKSRATLTVDKSSSTAYMELSRLRSDDTAVYFCTRGNYYGYEFAYWGQGTTVTVSS VL: DIQMTQSPSSMSASVGDRVTITCKASQHVSTAVAWYQQKPGKAPKLLIYSPSYRYTGVPSRFSGSGSGTDFTFTISSVQPEDIATYYCQQHYSTPWTFGGGTKLEIK | – | – | 0.511 | – | 1.14 | 0.000584 | 511000 | 0.0763 | – | – | – | – | – | – | –
humanized anti-human TIGIT monoclonal antibody P03490 (antibody, V domains shown) VH: QVQLVQSGAEVKKPGASVKLSCKASGYTFISYNIYWVRQAPGQGLEWIGGVNPSNGNTNFNENFKSRATLTVDKSSSTAYMELSRLRSDDTAVYFCTRGNYYGYEFAYWGQGTTVTVSS VL: DIQMTQSPSSLSASVGDRVTITCKASQHVSTAVAWYQQKPGKAPKLLIYSPSYRYTGVPSRFSGSGSGTDFTFTISSLQPEDIATYYCQQHYSTPWTFGGGTKLEIK | – | – | 0.501 | – | 1.27 | 0.000664 | 522000 | 0.0749 | – | – | – | – | – | – | –
humanized anti-human TIGIT monoclonal antibody P03493 (antibody, V domains shown) VH: QVQLVQSGAEVKKPGASVKVSCKASGYTFISYNIYWVRQAPGQGLEWMGGVNPSNGNTNFNENFQGRVTMTVDTSISTAYMELSRLRSDDTAVYYCTRGNYYGYEFAYWGQGTTVTVSS VL: DIQMTQSPSSLSASVGDRVTITCKASQHVSTAVAWYQQKPGKAPKLLIYSPSYRYTGVPSRFSGSGSGTDFTFTISSLQPEDIATYYCQQHYSTPWTFGGGTKLEIK | – | – | 0.444 | – | 1.12 | 0.000513 | 458000 | 0.0662 | 0.557 | – | – | – | – | – | –
humanized anti-human TIGIT monoclonal antibody P03491 (antibody, V domains shown) VH: QVQLVQSGAEVKKPGASVKVSCKASGYTFISYNIYWVRQAPGQGLEWIGGVNPSNGNTNFNENFKSRVTLTVDKSISTAYMELSRLRSDDTAVYYCTRGNYYGYEFAYWGQGTTVTVSS VL: DIQMTQSPSSLSASVGDRVTITCKASQHVSTAVAWYQQKPGKAPKLLIYSPSYRYTGVPSRFSGSGSGTDFTFTISSLQPEDIATYYCQQHYSTPWTFGGGTKLEIK | – | – | 0.471 | – | 1.88 | 0.00095 | 506000 | 0.0702 | – | – | – | – | – | – | –
humanized anti-human TIGIT monoclonal antibody P03479 (antibody, V domains shown) VH: EVQVVESGGGLVKPGGSLRLSCAASGFTFSTYAMSWVRQAPGKGLEWVAEISSGGSHTFYADTVKGRFTISRDNAKNTLYLQMNSLRAEDTAVYYCARKTLDYYALDYWGQGTTVTVSS VL: DVQITQSPSYLSASVGDRVTINCRASKSISKYLAWYQQKPGKAPKLLIYSGSRLQSGIPSRFSGSGYGTDFTLTISSLQPEDFATYYCQQHNEYPWTFGGGTKLEIK | – | – | 0.0858 | – | – | – | – | – | 0.963 | 8.43 | 0.00495 | 587000 | 0.109 µg/mL and 0.728 nM | 0.714 | –
humanized anti-human TIGIT monoclonal antibody P04662 (antibody, V domains shown) VH: EVQVVESGGGLVKPGGSLRLSCAASGFTFSTYAMSWVRQAPEQRLEWVAEISSGGSHTFYSDTVTGRFTISRDNAKNTLYLQMNSLRAEDTAVYYCARKTLDYYALDYWGQGTTVTVSS VL: DVQITQSPSSVSASVGDRVTINCRASKSISKYLAWYQQKPGKAPKLLIYSGSRLQSGVPSRFSGSGSGTDFTLTISSLQPEDFATYYCQQHNEYPWTFGGGTKLEIK | – | – | – | – | – | – | – | – | – | 2.4 | 0.0031 | 1.29e+06 | 0.094 µg/mL | 0.63 | 0.0063 µg/mL and 0.0419 nM
humanized anti-human TIGIT monoclonal antibody P04665 (antibody, V domains shown) VH: EVQVVESGGGLVKPGGSLRLSCAASGFTFSTYAMSWVRQAPEQRLEWVAEISSGGSHTFYSDTVTGRFTISRDNAKNTLYLQMNSLRAEDTAVYYCARKTLDYYALDYWGQGTTVTVSS VL: DIQMTQSPSSVSASVGETITITCRASKSISKYLAWYQQKPGKAPKLLIYSGSRLQSGVPSRFSGSGSGTDFTLTISSLQPEDFATYYCQQHNEYPWTFGGGTKLEIK | – | – | – | – | – | – | – | – | – | 5.58 | 0.00583 | 1.04e+06 | – | – | 0.0136 µg/mL and 0.0913 nM
humanized anti-human TIGIT monoclonal antibody P04663 (antibody, V domains shown) VH: EVQVVESGGGLVKPGGSLRLSCAASGFTFSTYAMSWVRQAPEQRLEWVAEISSGGSHTFYADTVKGRFTISRDNAKNTLYLQMNSLRAEDTAVYYCARKTLDYYALDYWGQGTTVTVSS VL: DVQITQSPSSVSASVGDRVTINCRASKSISKYLAWYQQKPGKAPKLLIYSGSRLQSGVPSRFSGSGSGTDFTLTISSLQPEDFATYYCQQHNEYPWTFGGGTKLEIK | – | – | – | – | – | – | – | – | – | 2 | 0.00307 | 1.53e+06 | 0.089 µg/mL | 0.594 | 0.0049 µg/mL and 0.033 nM
